# Reference: IntAct's records for PubMed 18725399
# B1: U3 small nucleolar RNA-associated protein 6 (Saccharomyces cerevisiae), Q02354 (parent)
# chain: MSKTRYYLEQCIPEMDDLVEKGLFTKNEVSLIMKKRTDFEHRLNSRGSSINDYIKYINYESNVNKLRAKRCKRILQVKKTNSLSDWSIQQRIGFIYQRGTNKFPQDLKFWAMYLNYMKARGNQTSYKKIHNIYNQLLKLHPTNVDIWISCAKYEYEVHANFKSCRNIFQNGLRFNPDVPKLWYEYVKFELNFITKLINRRKVMGLINEREQELDMQNEQKNNQAPDEEKSHLQVPSTGDSMKDKLNELPEADISVLGNAETNPALRGDIALTIFDVCMKTLGKHYINKHKGYYAISDSKMNIELNKETLNYLFSESLRYIKLFDEFLDLERDYLINHVLQFWKNDMYDLSLRKDLPELYLKTVMIDITLNIRYMPVEKLDIDQLQLSVKKYFAYISKLDSASVKSLKNEYRSYLQDNYLKKMNAEDDPRYKILDLIISKL
# partner: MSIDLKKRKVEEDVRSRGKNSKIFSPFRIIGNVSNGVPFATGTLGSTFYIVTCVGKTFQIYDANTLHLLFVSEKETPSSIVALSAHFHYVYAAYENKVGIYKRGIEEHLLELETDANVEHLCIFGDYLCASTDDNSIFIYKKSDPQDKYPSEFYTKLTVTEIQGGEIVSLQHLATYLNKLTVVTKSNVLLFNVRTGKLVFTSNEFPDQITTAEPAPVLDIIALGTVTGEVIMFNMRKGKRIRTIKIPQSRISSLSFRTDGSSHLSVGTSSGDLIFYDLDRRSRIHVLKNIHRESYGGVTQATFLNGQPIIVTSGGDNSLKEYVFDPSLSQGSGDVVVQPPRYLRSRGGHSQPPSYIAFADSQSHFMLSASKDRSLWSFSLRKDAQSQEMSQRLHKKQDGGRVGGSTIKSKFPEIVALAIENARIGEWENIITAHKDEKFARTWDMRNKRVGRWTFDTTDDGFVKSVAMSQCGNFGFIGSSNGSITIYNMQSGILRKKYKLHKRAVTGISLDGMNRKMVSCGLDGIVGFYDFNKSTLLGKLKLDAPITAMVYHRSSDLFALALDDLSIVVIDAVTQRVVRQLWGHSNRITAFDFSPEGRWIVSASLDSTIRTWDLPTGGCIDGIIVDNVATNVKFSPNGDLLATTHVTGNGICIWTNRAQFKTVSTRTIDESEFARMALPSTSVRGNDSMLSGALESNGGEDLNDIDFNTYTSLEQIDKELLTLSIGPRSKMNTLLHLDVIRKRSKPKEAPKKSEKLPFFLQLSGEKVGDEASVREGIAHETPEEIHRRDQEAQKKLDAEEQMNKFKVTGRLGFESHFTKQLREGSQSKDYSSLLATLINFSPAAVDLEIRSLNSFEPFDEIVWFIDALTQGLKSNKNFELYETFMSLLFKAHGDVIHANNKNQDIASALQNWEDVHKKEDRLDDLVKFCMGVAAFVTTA
# B2: U3 small nucleolar RNA-associated protein 6 (Saccharomyces cerevisiae), Q02354 (parent)
# chain: B1 chain
# partner: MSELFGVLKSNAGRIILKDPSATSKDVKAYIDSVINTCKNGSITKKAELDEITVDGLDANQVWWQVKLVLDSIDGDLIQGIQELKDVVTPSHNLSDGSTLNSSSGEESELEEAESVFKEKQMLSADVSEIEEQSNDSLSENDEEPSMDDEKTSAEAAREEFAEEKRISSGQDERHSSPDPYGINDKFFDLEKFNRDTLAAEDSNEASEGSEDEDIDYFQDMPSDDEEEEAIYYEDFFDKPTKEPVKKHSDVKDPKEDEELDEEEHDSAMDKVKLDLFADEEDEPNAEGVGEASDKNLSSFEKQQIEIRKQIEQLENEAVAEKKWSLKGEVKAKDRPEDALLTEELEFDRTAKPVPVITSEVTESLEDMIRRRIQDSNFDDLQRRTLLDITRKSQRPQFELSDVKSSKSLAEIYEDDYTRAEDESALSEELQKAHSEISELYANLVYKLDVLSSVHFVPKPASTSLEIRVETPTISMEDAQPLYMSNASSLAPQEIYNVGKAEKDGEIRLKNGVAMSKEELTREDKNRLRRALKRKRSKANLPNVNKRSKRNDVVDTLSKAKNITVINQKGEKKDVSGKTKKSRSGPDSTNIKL
# Variants of: B1
# Conditions: with utp21_yeast UTP21, Q06078
row,Variant,effect of a mutation on the interaction
1,MSKTRYYLEQCIPEMDDLVEKGLFTKNEVSLIMKKRTDFEHRLNSRGSSINDYIKYINYESNVNKLRAKRCKRILQVKKTNSLSDWSIQQRIGFIYQRETNKFPQDLKFWAMYLNYMKARGNQTSYKKIHNIYNQLLKLHPTNVDIWISCAKYEYEVHANFKSCRNIFQNGLRFNPDVPKLWYEYVKFELNFITKLINRRKVMGLINEREQELDMQNEQKNNQAPDEEKSHLQVPSTGDSMKDKLNELPEADISVLGNAETNPALRGDIALTIFDVCMKTLGKHYINKHKGYYAISDSKMNIELNKETLNYLFSESLRYIKLFDEFLDLERDYLINHVLQFWKNDMYDLSLRKDLPELYLKTVMIDITLNIRYMPVEKLDIDQLQLSVKKYFAYISKLDSASVKSLKNEYRSYLQDNYLKKMNAEDDPRYKILDLIISKL [G99E],disrupting interaction

# Variants of: B2
# Conditions: with mpp10_yeast MPP10, P47083
row,Variant,effect of a mutation on the interaction
1,MSKTRYYLEQCIPEMDDLVEKGLFTKNEVSLIMKKRTDFEHRLNSRGSSINDYIKYINYESNVNKLRAKRCKRILQVKKTNSLSDWSIQQRIGFIYQRETNKFPQDLKFWAMYLNYMKARGNQTSYKKIHNIYNQLLKLHPTNVDIWISCAKYEYEVHANFKSCRNIFQNGLRFNPDVPKLWYEYVKFELNFITKLINRRKVMGLINEREQELDMQNEQKNNQAPDEEKSHLQVPSTGDSMKDKLNELPEADISVLGNAETNPALRGDIALTIFDVCMKTLGKHYINKHKGYYAISDSKMNIELNKETLNYLFSESLRYIKLFDEFLDLERDYLINHVLQFWKNDMYDLSLRKDLPELYLKTVMIDITLNIRYMPVEKLDIDQLQLSVKKYFAYISKLDSASVKSLKNEYRSYLQDNYLKKMNAEDDPRYKILDLIISKL [G99E],decreasing interaction
